# Results: publication PMC10249356 (Biochemistry, 2023)
# T1: CkSucD (Clostridium kluyveri, UniProt P38947)
# T1 construct: gene sucD; His-tagged, expressed in E. coli BL21(DE3), HisTrap purified (gel filtration for crystals); homodimer
# T1 sequence (P38947 1-453): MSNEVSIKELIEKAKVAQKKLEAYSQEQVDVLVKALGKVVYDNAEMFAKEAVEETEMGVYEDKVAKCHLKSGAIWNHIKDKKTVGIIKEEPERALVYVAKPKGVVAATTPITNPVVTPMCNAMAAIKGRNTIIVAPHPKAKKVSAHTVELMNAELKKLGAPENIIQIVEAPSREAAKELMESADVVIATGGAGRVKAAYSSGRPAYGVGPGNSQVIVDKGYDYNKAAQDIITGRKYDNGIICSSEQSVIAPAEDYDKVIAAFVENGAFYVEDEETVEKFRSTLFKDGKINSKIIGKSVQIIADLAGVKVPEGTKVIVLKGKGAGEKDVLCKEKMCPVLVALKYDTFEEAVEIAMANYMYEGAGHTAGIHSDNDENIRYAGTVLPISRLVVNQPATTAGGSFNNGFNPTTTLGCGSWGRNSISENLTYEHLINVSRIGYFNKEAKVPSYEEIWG
# B1: CdSucD (Clostridioides difficile R20291) (protein)
# chain: MEKAVENFEDLSKEYINGYIERARKAQREFECYTQEQVDKIVKIVGKVVYYNAEYLAKLAVEETGMGVYEDKVAKNKSKAKVIYNNLKDKKSVGIIDIDRETGITKVAKPVGVVAAITPCTNPIVTPMSNAMFALKGRNAIIITPHHKAIGCSTKTVEMINEELEKIGAPENLIQILDQQSRENTRNLISSADVVIATGGMGMVKAAYSSGKPALGVGAGNVQCIIDRDVDIKEAVPKIIAGRIFDNGIICSGEQSVIVAEEMFDKIMDEFKNNKGFIVRDKVQKEAFRNAMFVNKSMNKDAVGQSVHTIAKIAGVEIPEDTKIIVIEADGPGEEDIIAKEKMCPVISAYKYKSFEEGVAIAKANLNVEGKGHSVSIHSNTVKNIEYAGENIEVSRFVINQCCATSAGGSFFNGLAPTNTLGCGSWGNNSISENLDYKHLINISRIAYYMPENEVPTDEELWG
# notes: His-tagged, expressed in E. coli BL21(DE3), HisTrap purified
# B2: Succinyl-CoA reductase (SucD) from Clostridium kluyveri (enzyme)
# chain: T1 sequence (P38947 1-453)
# notes: Succinyl-CoA reductase (SucD) of Clostridium kluyveri, UniProt P38947; In PDB 8CEJ Cys242 carries a mesaconyl-cysteine intermediate in subunits A, B and D; also called CkSucD; source: E. coli BL21 DE3, purified (HisTrap FF, desalting, size exclusion chromatography on Superdex 200)
# Assays:
# [1] = system: CC(C)(COP(=O)(O)OP(=O)(O)OC[C@H]1O[C@@H](n2cnc3c(N)ncnc32)[C@H](O)[C@@H]1OP(=O)(O)O)[C@@H](O)C(=O)NCCC(=O)NCCSC(=O)CCCO; experiment: purified protein; details: 200 mM HEPES pH 7.5, 400 µM NADPH, 400 nM enzyme, 30 °C, apparent KM
# [2] = system: T2, C/C(=C\C(=O)O)C(=O)SCCNC(=O)CCNC(=O)[C@H](O)C(C)(C)COP(=O)(O)OP(=O)(O)OC[C@H]1O[C@@H](n2cnc3c(N)ncnc32)[C@H](O)[C@@H]1OP(=O)(O)O; experiment: purified protein; assay type: biochemical, Clostridium kluyveri; details: 200 mM HEPES pH 7.5, 400 µM NADPH, 400 nM enzyme, 30 °C, apparent KM
# T2 construct: His-tagged, expressed in E. coli BL21(DE3), HisTrap purified (gel filtration for crystals); homodimer
# [3] = system: T3, CC(C)(COP(=O)(O)OP(=O)(O)OC[C@H]1O[C@@H](n2cnc3c(N)ncnc32)[C@H](O)[C@@H]1OP(=O)(O)O)[C@@H](O)C(=O)NCCC(=O)NCCSC(=O)CCC(=O)O; experiment: purified protein; assay type: biochemical, Clostridium kluyveri; details: 200 mM HEPES pH 7.5, 400 µM NADPH, 400 nM enzyme, 30 °C, apparent KM
# T3 construct: His-tagged, expressed in E. coli BL21(DE3), HisTrap purified (gel filtration for crystals); homodimer
# [4] = target: T1, CkSucD; experiment: X-ray crystal structure, […] Å; assay type: binding
# [5] = substrate: CC(C)(COP(=O)(O)OP(=O)(O)OC[C@H]1O[C@@H](n2cnc3c(N)ncnc32)[C@H](O)[C@@H]1OP(=O)(O)O)[C@@H](O)C(=O)NCCC(=O)NCCSC(=O)CCC(=O)O; experiment: purified protein; assay type: biochemical, Clostridioides difficile; details: 200 mM HEPES pH 7.5, 400 µM NADPH, 30 °C, apparent KM
# [6] = substrate: C/C(=C\C(=O)O)C(=O)SCCNC(=O)CCNC(=O)[C@H](O)C(C)(C)COP(=O)(O)OP(=O)(O)OC[C@H]1O[C@@H](n2cnc3c(N)ncnc32)[C@H](O)[C@@H]1OP(=O)(O)O; experiment: purified protein; assay type: biochemical, Clostridioides difficile; details: 200 mM HEPES pH 7.5, 400 µM NADPH, 30 °C, apparent KM
# [7] = target: the molecule itself; experiment: crystal structure; X-ray structures of CkSucD without ligands (8CEI), with NADPH (8CEK) and with mesaconyl-C1-CoA (8CEJ); sitting-drop vapor diffusion at 288 K
# [8] = substrate: CC(C)(COP(=O)(O)OP(=O)(O)OC[C@H]1O[C@@H](n2cnc3c(N)ncnc32)[C@H](O)[C@@H]1OP(=O)(O)O)[C@@H](O)C(=O)NCCC(=O)NCCSC(=O)CCC(=O)O; experiment: purified protein; details: 200 mM HEPES pH 7.5, 400 µM NADPH, 400 nM enzyme, 30 °C, apparent KM
# [9] = substrate: C/C(=C\C(=O)SCCNC(=O)CCNC(=O)[C@H](O)C(C)(C)COP(=O)(O)OP(=O)(O)OC[C@H]1O[C@@H](n2cnc3c(N)ncnc32)[C@H](O)[C@@H]1OP(=O)(O)O)C(=O)O; experiment: purified protein; details: 200 mM HEPES pH 7.5, 400 µM NADPH, 400 nM enzyme, 30 °C, apparent KM
# [10] = substrate: C/C(=C\C(=O)O)C(=O)SCCNC(=O)CCNC(=O)[C@H](O)C(C)(C)COP(=O)(O)OP(=O)(O)OC[C@H]1O[C@@H](n2cnc3c(N)ncnc32)[C@H](O)[C@@H]1OP(=O)(O)O; experiment: purified protein; details: 200 mM HEPES pH 7.5, 400 µM NADPH, 400 nM enzyme, 30 °C, apparent KM
# [11] = substrate: CCC(=O)SCCNC(=O)CCNC(=O)[C@H](O)C(C)(C)COP(=O)(O)OP(=O)(O)OC[C@H]1O[C@@H](n2cnc3c(N)ncnc32)[C@H](O)[C@@H]1OP(=O)(O)O; experiment: purified protein; details: 200 mM HEPES pH 7.5, 400 µM NADPH, 400 nM enzyme, 30 °C, apparent KM
# [12] = substrate: C/C=C/C(=O)SCCNC(=O)CCNC(=O)[C@H](O)C(C)(C)COP(=O)(O)OP(=O)(O)OC[C@H]1O[C@@H](n2cnc3c(N)ncnc32)[C@H](O)[C@@H]1OP(=O)(O)O; experiment: purified protein; details: 200 mM HEPES pH 7.5, 400 µM NADPH, 400 nM enzyme, 30 °C, apparent KM
molecule,measurement,setting,value
CkSucD (Clostridium kluyveri DSM 555),Km,[1],48.9 ± 10.8 µM
same,kcat,[1],0.2 ± 0.01 s⁻¹
CkSucD (Clostridium kluyveri DSM 555; K70R),Km,[2],86.1 ± 15.1 µM
same,kcat,[2],0.1 ± 0.01 s⁻¹
same,Km,[3],19.9 ± 2.3 µM
same,kcat,[3],0.9 ± 0.03 s⁻¹
NC(=O)C1=CN([C@@H]2O[C@H](COP(=O)(O)OP(=O)(O)OC[C@H]3O[C@@H](n4cnc5c(N)ncnc54)[C@H](OP(=O)(O)O)[C@@H]3O)[C@@H](O)[C@H]2O)C=CC1 [NADPH],"X-ray crystal structure, 2.1 Å","[4]; 5 mM NADPH, pH 6.5 (abstract calls the ligand NADP+)",8CEK (with NADPH)
C/C(=C\C(=O)O)C(=O)SCCNC(=O)CCNC(=O)[C@H](O)C(C)(C)COP(=O)(O)OP(=O)(O)OC[C@H]1O[C@@H](n2cnc3c(N)ncnc32)[C@H](O)[C@@H]1OP(=O)(O)O [mesaconyl-C1-CoA],"X-ray crystal structure, 2.1 Å","[4]; 5 mM ligand, pH 7.5, active site, intact ligand in chain C, covalent mesaconyl-Cys242 in chains A, B, D",mesaconyl-C1 CoA bound state (pdb 8CEJ
B1,Km,[5],213.8 ± 49.4 µM
same,kcat,[5],28.7 ± 4.1 s⁻¹
same,Km,[6],38.3 ± 14.9 µM
same,kcat,[6],0.65 ± 0.08 s⁻¹
B2,stoichiometry N,[7],2
same,Km,[8],22.6 ± 4.9 µM
same,kcat,[8],7.8 ± 0.43 s⁻¹
same,Km,[9],25.7 ± 6.8 µM
same,kcat,[9],0.2 ± 0.02 s⁻¹
same,Km,[10],28.5 ± 4.7 µM
same,kcat,[10],1.6 ± 0.07 s⁻¹
same,Km,[11],145.2 ± 144 µM
same,kcat,[11],0.1 ± 0.04 s⁻¹
same,Km,[12],332.6 ± 54.8 µM
same,kcat,[12],0.3 ± 0.03 s⁻¹
